# Test results: patent US7252951B2, “Essential downstream component of the wingless signaling pathway and therapeutic and diagnostic applications based thereon” (Universität Zurich, priority 2000, dated 2007)
# Tested on: Arm-Tcf transcriptional activity
# Experiment: Tcf-reporter gene (TOPFLASH luciferase) assay in HEK293 cells
# Format: cell-based
# Details: 4 ng pcDNA3-ΔArm, 200 ng pcDNA3-EGFP-hLgs-peptide, 48 h after transfection, normalized for renilla luciferase
# Protocol: FIG. 15(A) Effect of the expression of Lgs sequence homology 2-peptides on Tcf transcriptional activity. HEK293 cells at 50% confluence were plated into 24-well plates and transfected by a lipofection method. 240 ng of TOPFLASH luciferase reporter plasmid (Upstate biotechnology, New York, USA), 4 ng of pcDNA3-ΔArm, 200 ng of pcDNA3-EGFP-Lgs-peptide and 10 ng of a renilla luciferase reporter plasmid pRL-SV40 (Promega Corporation, Madison USA) were diluted into 25 μl of OPTI-MEM Medium (Life Technologies, Inc.) and combined with 1.2 μl of Lipofectamine (Life Technologies, Inc.) in 25 μl OPTI-MEM. After incubation for 20 min, 0.175 ml of OPTI-MEM was added and the mixtures were overlaid onto monolayers of cells. After culturing at 37° C./5% CO2 for 6 hr, 0.225 ml of OPTI-MEM containing 20% FCS was added to the cultures. […]
# The effect of Lgs on Tcf transactivation activity can be performed in a cell culture system using a Tcf reporter gene. A Tcf-responsive reporter gene is a contruct which comprises a readily detectable or assayable gene such β-galactosidase, green fluorescent protein, chloramphenicol acetyltransferase or luciferase, linked in cis to a Tcf response element and a minimal promoter. […]
row,Molecule,Arm-Tcf transcriptional activity (Tcf-driven luciferase)
1,"hLgs/Bcl9(279–392): Fragment (amino acids 279–392) of human Lgs/Bcl9 with a sequence homology domain, expressed as EGFP fusion from pcDNA3 (protein, left off: large carriers) PGVENKLIPSVGSPASSTPLPPDGTGPNSTPNNRAVTPVSQGSNSSSADPKAPPPPPVSSGEPPTLGENPDGLSQEQLEHRERSLQTLRDIQRMLFPDEKEFTGAQSGGPQQNP",strongly inhibit
2,"hLgs/Bcl9(199–392): Fragment (amino acids 199–392) of human Lgs/Bcl9 with a sequence homology domain, expressed as EGFP fusion from pcDNA3 (protein, left off: large carriers) TIVSFHIQNISNNKTERSTAPLNTQISALRNDPKPLPQQPPAPANQDQNSSQNTRLQPTPPIPAPAPKPAAPPRPLDRESPGVENKLIPSVGSPASSTPLPPDGTGPNSTPNNRAVTPVSQGSNSSSADPKAPPPPPVSSGEPPTLGENPDGLSQEQLEHRERSLQTLRDIQRMLFPDEKEFTGAQSGGPQQNP",strongly inhibit
